Assay: soluble on expression in E. coli; label from the status in PepcDB or PDB records

Sequence | soluble on expression in E. coli
MPAVTQPRGESKYDAIPGPLGPQSASLEGKVALVTGAGRGIGREMAMELGRRGCKVIVNYANSTESAEEVVAAIKKNGSDAACVKANVGVVEDIVRMFEEAVKIFGKLDIVCSNSGVVSFGHVKDVTPEEFDRVFTINTRGQFFVAREAYKHLEIGGRLILMGSITGQAKAVPKHAVYSGSKGAIETFARCMAIDMADKKITVNVVAPGGIKTDMYHAVCREYIPNGENLSNEEVDEYAAVQWSPLRRVGLPIDIARVVCFLASNDGGWVTGKVIGIDGGACM | soluble
MNIVPILLIRFYQSFISPLLGPSCKYHPTCSNYAIEAFRQHNFFYASWLTVWRVLRCNPFSKGGYDPVPPKSVKSAGNSKDSKLEHHHHHH | not soluble
MTLDLPELPFPLRPYGPDGRWSYADGVLTGVAGSRQDRFVPPTGESLESVSDAPRLLGAPDGDFQLIARVSVGFRGAFDAGVLYVHVGERAWAKLCLEYSPDVPTVCTVVTRGHSDDCNSFTVEGDSVWFRVSRTGRAFAFHASLDGERWTFVRLFTLGDEEETGSALVGFLAQAPTGEGCTVTYDHLEFRPAWPADLRDGSLEHHHHHH | not soluble
MKTLPPILSNIIEKVTNTEPANVEDKLPMNILVLGSDEKQGGRSDTIMLVHIQKDFQPIVISIPRDTRVKVEGIKGYSKINAAYAYGKSKLAVKTVEDILGIKIDKYVVVNYEAVEKIVDLVGGVDVEVPFHLYYVDTTPGKELYINIPAGLQHLDGKKAVEFLRWRHNSNGKEYGRGGDLGRIEMQRKLLYALIEKMLKPQNIVRLPLIVQTVSKYTDHNFTKNEIMWFIQNVGKFNTQNIMMTILPGYPKYIDRVSYYILNEEKCRALIDDLNEPEVLKDSMKIKILSKSFDDKATQLKNDLESKGYSNVNLGRVSKLESSEVELKRVNRKYLELLKNDIDLSTYQVVYSPDYSDKFDVYIKVKLEHHHHHH | soluble
MGSDKIHHHHHHMNLEDIFSILPEKIEREVKRISDYNNLQEIRIKVNKPLIIQIGKKEIISNYIATKEDLKKTFNVMSGYSIYSVEDELRQGYITIKGGHRVGICGDCVLEENKIKTIKNISSLNIRICKEVTGCSNSIMKKIVYGNTVLNTIIISPPNCGKTTLLRDITRNISYGINSIQFRGKKVCVIDERSEIGACLNGVNQMDIGIRTDILDNCPKSIGIMMAIRSMAPEVIICDEIGTYDDIKSILTAVNCGVKLITTIHGFGIEDLNSRDVFKDAIKNNVFERAIVLSGRSGVGTVEYIYDFYTKERERGL | not soluble
MTRLTLALDVMGGDFGPSVTVPAALQALNANSQLTLLLVGNPDIITPLLAKADFEQRSRLQIIPAQSVIASDARPSQAIRASRGTSMRVALELVKEGRAEACVSAGNTGALMGLAKLLLKPLEGIERPALVTVLPHQQKGKTVVLDLGANVDCDSTMLVQFAVMGAVLAEEVVGIKNPRVALLNIGEEETKGLDSIREASLMLKTVPTINYIGYLEANELLTGKTDVLVCDGFTGNVTLKTMEGVVRMFLSLLKSQGEGKKRSWWLLLLKRWLQKSLTRRFSHLNPDQYNGACLLGLRGTVIKSHGAANQRAFAVAIEQAVQAVQRQVPQRIAARLESVYPAGFEPLDDGKGVNLRAHR | not soluble
MEKDKQQLSVEVARLYYQSDYSQQEIANKLNISRPTISRLLKYAKEKGFVQISIADPFADLDNVGNLLKEKYNLLEAHVVFSPVPEYATITEYISKYAAEYMEKTVKNGDIVGVSWGMTMYEIARKIVPQHVKGVEVVQLKGGISHSSVNTYANETIALFADAFQTTPRNLPLPVIFDNAVTKELVEQDRHIHHIIEMGKQANIAIFTVGTVRDEALLFRLGYFDKDETNLLKKQSVGDICSRFFDGDGNISSEEINKRTIGIELEELKLKKRSILVAGGNRKIKAIDGALRGGYANVLIIDQHTAKELLHYQKG | not soluble
MSLVQSINTKVDLTIDATAYTGLTDYGKIMIGDKGFEFFNSRDVRKFVQIPWEEVDQVIVSVMLKGKWIPRYAIKTKRNGTYTFASKRPKEVLRKIRVYVDPANMVSSLSFFDVMKRSFRSIFSKKKNKNKEGHHHHHH | not soluble
GPGSMRSTAPLFMAQGIWAGFRYYLGHFFYPNMYREYLSVQNAHKIERALRIQTAIKANRVDYRALLALPVTDHAHPYKMEYPWEKVINTDKSKLSGYGKWYASKIMCFYEGLQYHKYGCLQDDLINAHGWWNRAARTRAPQDKIVHGDRRVMRARVLRDKYIYEPKSRWVHPIDNVAYFGPYVMMVCDEWEEKWGFFAGQEVEY | not soluble
MGSDKIHHHHHHMTQQTIYHIGTPGTPWGATEKAQWLAEQTKKRSYFDDVVSKIETFKSDFDVDQYGELAYDSGTYPLFVVRTKNWDDSKPTVLVTGGVHGYETSGVHGALRFIETKAKDYQPHFNVVVAPCLSPWGYETINRWNPAAIDPNRSFVADSPAGECAHIMNYVAGLGVDILAHIDLHETTDTDNSEFRPAKAAMDGKVNTNWNIPDGFYLVGNSEKPYPEFQKAVLDSVEEVTHIADADDENKLIGEDIAQRGVILLPTAKMGLCISFSKAEYATTTEVYPDSPKATPEQCIQAQVAAVTGGLDFLK | not soluble
SDPDADRVGIACKNDKGEWVLINGNQTCLMYLYYIITQYNKLGKMTGNEFCVKTIVTTELIKKIADKNHIEMLDCYTGFKWIAREIRLREGKKKYIGGGEESYGFLAEDFVRDKDAVSACCLIAEVAAWAKDNGKTLYQLLMDIYVEYGFSKE | not soluble
MITSDSHMHTRFSTDSDADIRDMIESALKKGLQSICITDHIDKDYPFHEDTGAEAFLVDLDEYFPKLAEWKEAYAEKIQIRRGIELGLQPHLAGFYEELTNQYPFDFVIGSVHVVHGMDPYYGEIFEGRSDEEVYKETFLATLENLDAVSSFDVLGHLDYVVRYGKCQARQYSYKKYAQEIDEILKKVIAMGKGIELNTAGWKYGLAFCHPHPEILCRYKELGGEIITVGSDAHKPEHVAYDFQKAADVLKACGFKYYTEFQDRKPIFKQLL | soluble
GPGSMAGVLHETATTVSYRGALCKLAGVELQGINLSPPQRLCQLELLISREINWLAAVLEEWEEKYMLFTCVPYRGVVDAFTTLLRTIKRHLETENSSKDNEKEWDALLASSITEFQVEVMEIGKGKSY | soluble
MGSDKIHHHHHHMQKRNELPGHLAVAPFTLDSARASGVSRARLRRKDVVHVGRGLYRPSDWNFELEAAARALSTASPGAWISHVTAARLHCQLLPPWLADSTELHLSKPRALPSVRRSGVIGHTVVALEDEIESIDGLRVSTRSRTWLDLARRLPVSDLVCMGDQLIRVPRVAFEGRTRPYDTLDGLRTLVGRHPNLQGVVRAREALHLMRVGADSAPESLLRLAMADAGLPEPELQLALRPTDAVSPTADLGYRHRRLAIQYDGEHHLLDAQIFSDRRRDKAFESAGWTVLILGKDDLADGCRPAVSKIKRLLRTAWLDHPQASGFADAG | not soluble
MIRPVDFQGFVVKGVESVQNVSQTLNQQTLVQQALSQHLLHQIQREQSSVKESNTAERAEVRTSTERRQRGFPQTRTHSSLKKKKTSIKEENKGLFMDVRTLEHHHHHH | not soluble
MSLIKKVLPLAEQLRPKNLNDIVGQDHILGENGLITKTIESQIPLSVILWGPPGCGKTSIARLYAQAFNMQFISMSAIFSGVADLKKTIKEAQNQPLFHKGTLLFVDEIHRFNKSQQDAFLPFVENGTIILIGATTENPSFYLNGALLSRLRVLPIYPLDGFSLEQLLERYEKQFAPLPLTAEARHWLITCAQGDGRYLYNLIENLRYASKQILDIPLLEKIFQKRSPLFDKRGDQHYNLISALHKSVRGSDPNAAIYWFTRMLEGGEEPLFLARRLIRMAVEDIGLSDPQALPLAIAAKDAYEMLGSPEGELALAEVVIYLALAPKSNAVYRAFGMAKESASKTSYLNPPLTILNAPTKMMKNLGYGKDYQYDPDLPEAFSGQNYFPDSLEKQHFYEPVERGFERELKKRLEYFEQLRLKKKEGHHHHHH | soluble
